The text below walks through data of US20220251184A1.

In test [1] the target is human BMP6 (R&D Systems, Cat #507-BP) (human) (UniProt P22004). Nature of the test: SPR (MASS-1), mAb captured on anti-human Fc, hBMP6 in solution, 25 C.
The target is the same in test [2]. As to the kind of experiment: SPR (MASS-1), mAb captured on anti-human Fc, hBMP6 in solution, 37 C.
Test [3] has as its target mouse BMP6 (R&D Systems, Cat #6325-BM) (mouse) (UniProt P20722). Nature of the test: SPR (MASS-1), mAb captured on anti-human Fc, mBMP6 in solution, 25 C.
Test [4] has the same target. Nature of the test: SPR (MASS-1), mAb captured on anti-human Fc, mBMP6 in solution, 37 C.
Test [5] has as its target human BMP6 (R&D Systems, Cat #507-BP) (human) (UniProt P22004). Nature of the test: SPR (Biacore 3000), premix of 400 nM mAb and 10 nM hBMP6 over immobilised hHJV-hFc (competitor), 25 C.
The target is the same in test [6]. Nature of the test: SPR (Biacore 3000), blocking of hBMP6 binding to immobilised hHJV-hFc (competitor) by 400 nM mAb, 25 C. Background: Surface plasmon resonance follows binding to a sensor surface in real time, without labels.
Test [7] shares this target. Nature of the test: SPR (Biacore 3000), premix of 400 nM mAb and 10 nM hBMP6 over immobilised hActR2A-hFc (competitor), 25 C.
Test [8] shares this target. As to the kind of experiment: SPR (Biacore 3000), premix of 400 nM mAb and 10 nM hBMP6 over immobilised hActR2B-hFc (competitor), 25 C.
Test [9] shares this target. Nature of the test: SPR (Biacore 3000), blocking of hBMP6 binding to immobilised hActR2A-hFc (competitor) by 400 nM mAb, 25 C.
Test [10] has the same target. As to the kind of experiment: SPR (Biacore 3000), blocking of hBMP6 binding to immobilised hActR2B-hFc (competitor) by 400 nM mAb, 25 C.

human BMP6 (R&D Systems, Cat #507-BP) (human), sequence (P22004 375-513 limits assumed): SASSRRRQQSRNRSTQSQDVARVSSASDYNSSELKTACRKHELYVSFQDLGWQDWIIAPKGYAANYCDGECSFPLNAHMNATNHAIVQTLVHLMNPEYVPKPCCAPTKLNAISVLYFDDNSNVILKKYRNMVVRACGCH
mouse BMP6 (R&D Systems, Cat #6325-BM) (mouse), sequence (P20722 372-510 limits assumed): as the sequence (P22004 375-513 limits assumed) above, with A21S, V23G, S25G, A26S, S31G, R39K counted along it

Turning to Isotype Control mAb (antibody), the 60 nM hBMP6 Bound (RU) in test [1] and in [2] was 2 RU each time. The 60 nM mBMP6 Bound (RU) in test [3] and in [4] was 3 RU in each case. In addition, the figures for the 400 nM mAb + 10 nM hBMP-6 Binding (RU) in test [5], in test [7] and in test [8] were 299 RU, 246 RU and 187 RU, respectively. Moreover, the % Blocking turned out to be 41% in test [6], 43% in [9] and 25% in [10].
